The values that follow come from article PMC3166298, “Phosphorylation Alters the Interaction of the Arabidopsis Phosphotransfer Protein AHP1 with Its Sensor Kinase ETR1” (PLoS ONE, 2011).

For series [1], the target named is CheW (UniProt P0A964). The note with it: cited from earlier work.
Series [2] has as its target T1, dansylated AHP1 (Arabidopsis), Q9ZNV9.
T1 chain: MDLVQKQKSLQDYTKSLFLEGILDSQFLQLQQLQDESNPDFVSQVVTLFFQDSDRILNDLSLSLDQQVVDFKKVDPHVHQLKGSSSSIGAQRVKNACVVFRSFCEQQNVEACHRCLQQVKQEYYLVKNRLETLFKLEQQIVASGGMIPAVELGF
The experiment in a line: fluorescence polarisation; Perrin plot of a single dansylated protein at 0.2 uM; 0.2 M potassium phosphate pH 8.0, 0.05% beta-D-dodecylmaltoside, 10 mM beta-cyclodextrin; 5-25 C; apparent molecular weight. The conditions noted are these: remark: other sources report otherwise.

Series [3] has the same target. The experiment in a line: fluorescence polarisation; Perrin plot of 2 uM ETR1 together with 0.2 uM dansylated AHP1; 0.2 M potassium phosphate pH 8.0, 0.05% beta-D-dodecylmaltoside, 10 mM beta-cyclodextrin; 5-25 C; apparent molecular weight. The note with it: remark: other sources report otherwise.
For series [4], the target named is T2, AHP1-GFP(S65T), wild type Arabidopsis histidine-containing phosphotransfer protein 1 fused to green fluorescent protein (Arabidopsis), Q9ZNV9.
T2 chain: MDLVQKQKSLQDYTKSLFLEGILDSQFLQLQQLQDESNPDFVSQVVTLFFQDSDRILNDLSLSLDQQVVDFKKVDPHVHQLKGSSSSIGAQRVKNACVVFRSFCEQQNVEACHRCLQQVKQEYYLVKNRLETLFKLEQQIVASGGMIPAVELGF
The series can be described thus: fluorescence polarisation; Perrin plot (anisotropy against temperature/viscosity) of 20 nM AHP1-GFP; 50 mM Tris-HCl pH 7.5, 100 mM KCl, 0.1% beta-D-dodecylmaltoside, 0.002% PMSF; 10-30 C, 0-20% glycerol; apparent molecular weight. The conditions noted are these: remark: other sources report otherwise.

For series [5], the target named is T3, ETR1-D659A (Arabidopsis, UniProt P49333 1-738, D659A).
T3 construct: Represents the non-phosphorylated state of the receiver domain
T3 sequence (looked up): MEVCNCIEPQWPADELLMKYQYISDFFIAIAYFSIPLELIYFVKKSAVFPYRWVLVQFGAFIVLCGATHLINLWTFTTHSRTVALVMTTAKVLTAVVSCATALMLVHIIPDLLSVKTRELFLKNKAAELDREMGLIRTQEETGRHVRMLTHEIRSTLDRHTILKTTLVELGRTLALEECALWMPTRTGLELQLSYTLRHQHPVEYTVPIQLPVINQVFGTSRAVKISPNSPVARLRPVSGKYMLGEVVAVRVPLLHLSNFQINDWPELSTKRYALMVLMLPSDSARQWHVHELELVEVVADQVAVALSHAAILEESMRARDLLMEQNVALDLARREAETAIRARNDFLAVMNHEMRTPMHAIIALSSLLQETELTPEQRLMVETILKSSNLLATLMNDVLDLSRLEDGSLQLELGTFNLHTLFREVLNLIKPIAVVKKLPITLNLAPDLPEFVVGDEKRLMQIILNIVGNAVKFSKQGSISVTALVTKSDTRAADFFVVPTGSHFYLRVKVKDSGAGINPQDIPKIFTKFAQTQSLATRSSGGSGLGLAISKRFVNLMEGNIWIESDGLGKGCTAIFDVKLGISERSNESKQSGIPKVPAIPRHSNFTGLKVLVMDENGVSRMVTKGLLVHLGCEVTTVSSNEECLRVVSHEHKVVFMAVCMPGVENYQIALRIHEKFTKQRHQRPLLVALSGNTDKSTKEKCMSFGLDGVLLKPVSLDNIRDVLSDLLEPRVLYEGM
The experiment in a line: fluorescence polarisation; ETR1 mutant (0.04-20 uM) titrated to 8 nM AHP1 mutant-GFP(S65T); 50 mM Tris-HCl pH 7.5, 100 mM KCl, 0.1% beta-D-dodecylmaltoside, 0.002% PMSF; fit to a single binding site. The conditions noted are these: both partners purified.

The target of series [6] is T4, ETR1-D659E (Arabidopsis, UniProt P49333 1-738, D659E).
T4 construct: Phosphomimetic of the receiver domain aspartate; also called ETR1 mutant mimicking permanent phosphorylation
T4 sequence (looked up): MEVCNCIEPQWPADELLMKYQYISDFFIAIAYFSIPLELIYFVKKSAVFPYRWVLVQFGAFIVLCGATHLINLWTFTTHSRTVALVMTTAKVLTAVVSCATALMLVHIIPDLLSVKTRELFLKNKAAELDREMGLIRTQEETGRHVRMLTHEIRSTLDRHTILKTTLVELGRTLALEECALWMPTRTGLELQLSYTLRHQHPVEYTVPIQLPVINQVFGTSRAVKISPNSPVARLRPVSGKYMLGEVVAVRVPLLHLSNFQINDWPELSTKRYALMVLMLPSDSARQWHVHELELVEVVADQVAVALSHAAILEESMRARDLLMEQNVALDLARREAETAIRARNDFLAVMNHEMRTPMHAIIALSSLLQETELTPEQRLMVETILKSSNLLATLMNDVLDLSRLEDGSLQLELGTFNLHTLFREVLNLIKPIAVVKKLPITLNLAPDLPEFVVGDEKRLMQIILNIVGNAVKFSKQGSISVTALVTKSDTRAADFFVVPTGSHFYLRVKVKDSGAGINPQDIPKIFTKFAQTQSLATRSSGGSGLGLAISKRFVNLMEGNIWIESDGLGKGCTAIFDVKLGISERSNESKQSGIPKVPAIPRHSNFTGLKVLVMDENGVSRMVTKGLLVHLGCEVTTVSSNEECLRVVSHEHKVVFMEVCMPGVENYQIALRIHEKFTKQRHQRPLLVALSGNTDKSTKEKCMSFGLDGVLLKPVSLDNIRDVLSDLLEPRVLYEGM
Described as above. The conditions noted are these: both partners purified.

Series [7] concerns the molecule itself. The experiment in a line: fluorescence polarisation; Perrin plot of a single dansylated protein at 0.2 uM; 0.2 M potassium phosphate pH 8.0, 0.05% beta-D-dodecylmaltoside, 10 mM beta-cyclodextrin; 5-25 C; apparent molecular weight. (Polarisation of emitted light reports the rotation of a fluorescent probe.)

CheW, sequence (P0A964 whole entry): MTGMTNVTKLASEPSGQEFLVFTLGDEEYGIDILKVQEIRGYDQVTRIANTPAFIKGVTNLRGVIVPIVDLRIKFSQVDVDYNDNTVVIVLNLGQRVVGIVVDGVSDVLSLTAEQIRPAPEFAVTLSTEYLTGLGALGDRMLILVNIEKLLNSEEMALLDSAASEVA

Take CheA (from UniProt P07363): the Kd in series [1] was 17 µM.

B1: dansylated AHP1, Q9ZNV9 1-154 (natural protein)
chain: MDLVQKQKSLQDYTKSLFLEGILDSQFLQLQQLQDESNPDFVSQVVTLFFQDSDRILNDLSLSLDQQVVDFKKVDPHVHQLKGSSSSIGAQRVKNACVVFRSFCEQQNVEACHRCLQQVKQEYYLVKNRLETLFKLEQQIVASGGMIPAVELGF
modifications: here or on the partner: dansyl label (dansyl chloride; typical ratio of protein-dansyl labeling 1:4), positions not given; dansyl label (dansyl chloride; typical ratio of protein-dansyl labeling 1:4), positions not given
For B1, the stoichiometry N in series [2] and in series [3] was 2 throughout.

B2: AHP1-GFP(S65T), wild type Arabidopsis histidine-containing phosphotransfer protein 1 fused to green fluorescent protein, Q9ZNV9 1-154 (natural protein)
chain: MDLVQKQKSLQDYTKSLFLEGILDSQFLQLQQLQDESNPDFVSQVVTLFFQDSDRILNDLSLSLDQQVVDFKKVDPHVHQLKGSSSSIGAQRVKNACVVFRSFCEQQNVEACHRCLQQVKQEYYLVKNRLETLFKLEQQIVASGGMIPAVELGF
Turning to B2, the stoichiometry N in series [4] worked out at 2.

B3: AHP1(H79E)-GFP(S65T) (natural protein, Arabidopsis, UniProt Q9ZNV9 1-154, looked up)
chain: MDLVQKQKSLQDYTKSLFLEGILDSQFLQLQQLQDESNPDFVSQVVTLFFQDSDRILNDLSLSLDQQVVDFKKVDPHVEQLKGSSSSIGAQRVKNACVVFRSFCEQQNVEACHRCLQQVKQEYYLVKNRLETLFKLEQQIVASGGMIPAVELGF
notes: AHP1, Arabidopsis histidine-containing phosphotransfer protein 1; also called AHP1 mutant mimicking permanent phosphorylation
As for B3, the figures for the Kd in series [5] and in series [6] were 3.6 µM and 16.3 µM, respectively.

B4: AHP1(H79A)-GFP(S65T) (natural protein, Arabidopsis, UniProt Q9ZNV9 1-154, looked up)
chain: MDLVQKQKSLQDYTKSLFLEGILDSQFLQLQQLQDESNPDFVSQVVTLFFQDSDRILNDLSLSLDQQVVDFKKVDPHVAQLKGSSSSIGAQRVKNACVVFRSFCEQQNVEACHRCLQQVKQEYYLVKNRLETLFKLEQQIVASGGMIPAVELGF
notes: AHP1, Arabidopsis histidine-containing phosphotransfer protein 1
Turning to B4, the values for the Kd in series [5] and in series [6] were 15.4 µM and 2.6 µM, respectively.

B5: dansylated ETR1 (receptor, Arabidopsis, UniProt P49333 1-738, looked up)
chain: MEVCNCIEPQWPADELLMKYQYISDFFIAIAYFSIPLELIYFVKKSAVFPYRWVLVQFGAFIVLCGATHLINLWTFTTHSRTVALVMTTAKVLTAVVSCATALMLVHIIPDLLSVKTRELFLKNKAAELDREMGLIRTQEETGRHVRMLTHEIRSTLDRHTILKTTLVELGRTLALEECALWMPTRTGLELQLSYTLRHQHPVEYTVPIQLPVINQVFGTSRAVKISPNSPVARLRPVSGKYMLGEVVAVRVPLLHLSNFQINDWPELSTKRYALMVLMLPSDSARQWHVHELELVEVVADQVAVALSHAAILEESMRARDLLMEQNVALDLARREAETAIRARNDFLAVMNHEMRTPMHAIIALSSLLQETELTPEQRLMVETILKSSNLLATLMNDVLDLSRLEDGSLQLELGTFNLHTLFREVLNLIKPIAVVKKLPITLNLAPDLPEFVVGDEKRLMQIILNIVGNAVKFSKQGSISVTALVTKSDTRAADFFVVPTGSHFYLRVKVKDSGAGINPQDIPKIFTKFAQTQSLATRSSGGSGLGLAISKRFVNLMEGNIWIESDGLGKGCTAIFDVKLGISERSNESKQSGIPKVPAIPRHSNFTGLKVLVMDENGVSRMVTKGLLVHLGCEVTTVSSNEECLRVVSHEHKVVFMDVCMPGVENYQIALRIHEKFTKQRHQRPLLVALSGNTDKSTKEKCMSFGLDGVLLKPVSLDNIRDVLSDLLEPRVLYEGM
modifications: dansyl label (dansyl chloride; typical ratio of protein-dansyl labeling 1:4), positions not given
notes: In a dodecylmaltoside micelle; theoretical molecular weight printed as 84.9 kDa; also called ETR1 (dansylated); source: recombinant, purified from the bacterial host, then dansylated
As to B5, in series [7], the “stoichiometry N” value was 2.

For orientation: Kd means a measure of binding affinity in units of concentration. The term stoichiometry N denotes the number of molecules, sites or subunits per partner or assembly.
